Reference: US20180086836A1 (GLENMARK PHARMACEUTICALS S A, published 2018)

Tests used:
[1] = target: T1, recombinant human N-terminal CCR6 Fc (human); assay: direct ELISA, Fc fusion coated at 2 µg/ml, anti-human F(ab')2-HRP
T1 construct: also called human CCR6-Fc; hsCCR6-Nter-Fc
Experimental: (§1) FIG. 8: Direct binding ELISA on immobilized recombinant human N-terminal CCR6 Fc. Binding of humanized 4H11 H5L1 antibody on human N terminus fragment of CCR6 was measured by direct ELISA. Various concentrations (ranging from 10 to 0.00006 μg/ml) of humanized 4H11 H5L1 in IgG1 and IgG4HS backbones were incubated with 2 μg/ml of either recombinant human N terCCR6-Fc tagged protein (FIG. 8A) or recombinant cynomologus N-terminal peptide Fc (FIG. 8B), coated overnight at 4° C. in a 96-well plate. Binding of humanized 4H11 H5L1 antibody to Nter CCR6-Fc protein was detected by horseradish peroxidase (HRP)-conjugated anti-human (Fab)′2-specific antibody.
(§2) A binding ELISA was performed to test the reactivity of 4H11 VH5/VL1 IgG1 and 4H11 VH5/VL1 IgG4HS antibodies on peptides consisting of the N-terminal region of CCR6 from human and cynomologus species. Briefly, 96 well-microtiter plates (Costar USA, distributor VWR AG, Nyon, Switzerland) were coated with 100 μl of recombinant human and cynomologus N-terminus peptide-Fc at 2 μg/ml in PBS. Plates were incubated overnight at 4° C. and were then blocked with PBS 2% BSA (Bovine Serum Albumine, PAA Laboratories, Pasching, Austria) at room temperature (RT) for one hour. The blocking solution was removed and various concentrations of 4H11 VH5/VL1 IgG1 and 4H11 VH5/VL1 IgG4HS were added. The plates were incubated at RT for 1 hour, then washed six times with PBS 0.01% Tween-20 (Sigma-Aldrich Chemie GmbH, Buchs, Switzerland) and a goat-anti human Ig F(ab′)2 fragment specific-HRP (Jackson ImmunoResearch Europe Ltd, Newmarket, UK). After washing, the plates were incubated with TMB substrate (Bio-Rad Laboratories AG, Reinach, Switzerland) to reveal antibody binding. The reaction was stopped by adding 2M H₂SO₄ and the optical density was read at 450 nm (OD 450 nm) on a Synergy HT2 spectrophotometer (Biotek, USA; distributor: WITTEC AG, Littau, Switzerland).

[2] = target: T2, recombinant cynomologus N-terminal CCR6 peptide Fc (cynomolgus monkey; human); assay: as above
T2 construct: It differs from the human construct only in the CCR6 N-terminus; also called Cyno CCR6-Fc; cynoCCR6-Nter-Fc
Experimental: as §1, §2

[3] = target: T1, recombinant human N-terminal CCR6 Fc; assay: SPR (BIAcore 2000), Fc-fused peptide immobilized on CM5 chip, antibody as analyte, bivalent analyte model
Experimental: (§3) Kinetic binding affinity constants (KD) were measured on Fc-fused huCCR6 N-terminal and cynoCCR6 N-terminal peptides with the 4H11 VH5/VL1 IgG4hs antibody as analyte. Same measurements were performed using the 4H11 VH5/VL1 IgG1 antibody and chimeric 4H11 antibody for comparison. Measurements were conducted on a BIAcore 2000 (GE Healthcare—BIAcore, GE Healthcare Europe GmbH, Glattbrugg, Switzerland) at room temperature, and analyzed with the BiaEvaluation software (BIAcore; v4.1, GE Healthcare Europe GmbH) using a bivalent analyte kinetic affinity model.
(§4) A CM5 research grade sensor chip (GE Healthcare Europe GmbH; ref. BR-1000-14) was activated by injecting 35 μl of a 1:1 N-hydroxysulfosuccinimide (NHS)/1-Ethyl-3-[3-dimethylaminopropyl]carbodiimide Hydrochloride (EDC) solution (v/v; 5 μl/min flow-rate; on flow paths 1 and 2). Fc-fused human or cynomologus CCR6 N-terminal peptides were diluted to a final concentration of 25 nM in acetate buffer pH 4.5 (GE Healthcare Europe GmbH, BR-1003-50; one pH unit below pI) and subsequently immobilized on the previously activated CM5 sensor chip by injecting 20 μl on both flow path 1 and 2 (5 μl/min); this corresponded to approximately 300 response units (RUs). The human or cynomologus CCR6 N-terminal peptides coupled CM5 sensor chip was then deactivated by injecting 35 μl of ethanolamine solution (5 μl/min). […]

[4] = target: T2, recombinant cynomologus N-terminal CCR6 …; assay: as above
Experimental: as §3, §4

[5] = target: T1, recombinant human N-terminal CCR6 Fc; assay: SPR (BIAcore 2000), Fc-fused human CCR6 N-terminal peptide immobilised on CM5, antibody as analyte, bivalent analyte model
Experimental: as §3, §4

[6] = target: T2, recombinant cynomologus N-terminal CCR6 …; assay: SPR (BIAcore 2000), Fc-fused cynomolgus CCR6 N-terminal peptide immobilised on CM5, antibody as analyte, bivalent analyte model
Experimental: as §3, §4

human CCR6 = target: T3, human CCR6 (human, UniProt P51684 1-374); assay: flow cytometry blocking assay on CCR6-transfected BAF cells; blocked ligand: recombinant human CCL20 at 0.5 µg/ml, detected with biotinylated anti-CCL20 and streptavidin-APC
T3 construct: Full length human CCR6 on transfected BAF or CHO cells, or native on human PBMCs; also called hsCCR6; CCR6 receptor
T3 sequence: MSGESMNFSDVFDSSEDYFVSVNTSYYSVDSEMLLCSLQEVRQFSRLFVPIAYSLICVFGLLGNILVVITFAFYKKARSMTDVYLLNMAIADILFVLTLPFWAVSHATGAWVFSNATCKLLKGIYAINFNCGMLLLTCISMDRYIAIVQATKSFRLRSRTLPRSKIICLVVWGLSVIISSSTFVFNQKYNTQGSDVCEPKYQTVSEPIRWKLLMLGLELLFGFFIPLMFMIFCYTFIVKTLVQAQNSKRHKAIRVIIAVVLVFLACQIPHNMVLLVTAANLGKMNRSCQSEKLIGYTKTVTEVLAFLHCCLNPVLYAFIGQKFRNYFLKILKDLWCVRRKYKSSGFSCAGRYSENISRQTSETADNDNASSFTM
Experimental: Cells transfected with CCR6 were incubated at 4° C. for 20 minutes with humanized 4H11-VH5/VL1 serially diluted (from 100 to 0.00001 μg/ml) in FACS buffer containing 0.1% of azide. Cells were centrifuged and incubated at 4° C. for 20 minutes with 0.5 μg/ml of recombinant human CCL20. To detect CCL20 bound to CCR6, cells were incubated with a biotinylated goat anti-human CCL20, followed by incubation with Allophycocyanin (APC)-labelled Streptavidin diluted at 1/100 in FACS buffer containing 0.1% of azide. To evaluate blocking potential of humanized 4H11 VH5/VL1 IgG4HS, percentage of CCL20 was measured at each concentration of antibody. Maximum binding activity of CCL20 to CCR6 was calculated as a percentage of that seen for the isotype control.
To determine whether 4H11 VH5/VL1 IgG4HS neutralizes CCR6-mediated biological function through a direct inhibition of CCL20-CCR6 interaction, an assay using flow cytometry approach was set up. Briefly, BAF cells transfected with CCR6 were counted and diluted at 1*10⁶ cells/ml in FACS buffer containing 0.1% of azide. […] Then, CCL20 was detected using a biotinylated anti-human CCL20 (R&D Systems, clone BAF360) followed by allophycocyanin (APC)-labelled streptavidin diluted in FACS buffer+0.1% azide at 1 μg/ml and 1/100, respectively. Cells were washed two times in FACS buffer, 0.1% azide and samples were analysed by flow cytometry. […]

B1: 4H11 VH5/VL1 IgG4HS antibody (antibody, V domains shown)
VH: EVQLVESGGGLVQPGGSLRLSCAASGFSFSDYYMYWVRQAPGKGLEWVSYITNGGITYYPDSVKGRFTISRDNSKNTLYLQMNSLRAEDTAVYYCTSPLRGAWFAYWGQGTLVTVSS
VL: DVVMTQSPLSLPVTLGQPASISCRSSQSIVHSNGNTYLEWYQQRPGQSPRLLIYKVSNRFSGVPDRFSGSGSGTDFTLKISRVEAEDVGVYYCFQGSHVPLTFGQGTKLEIK
notes: also called humanized 4H11 H5L1 IgG4HS; humanized 4H11-VH5/VL1
EC50 (read off the curve) [1]: ~0.06 µg/mL | EC50 (read off the curve) [2]: ~0.2 µg/mL | Kd [3]: 1.56 nM | Kd [4]: 4.67 nM | koff [5]: 0.000798 s⁻¹ | kon [5]: 510000 M⁻¹ s⁻¹ | koff [6]: 0.0015 s⁻¹ | kon [6]: 320000 M⁻¹ s⁻¹ | IC50 (read off the curve) (human CCR6): ~0.5 µg/mL
